This is an account of results in patent US20060246471A1 (published 2006).

For orientation: IC50 means the concentration that gives 50% inhibition. As a reminder, the Kd is the free concentration of one partner at which half of the binding sites on the other are occupied at equilibrium, for simple one-to-one binding.

First the molecules themselves.
B3: MLXBIR3SG (ML-IAP chimera: ML-IAP framework with XIAP-BIR3 residues 336-348 in place of 160-179, and S150G) (other)
chain: MGSSHHHHHHSSGLVPRGSHMLETEEEEEEGAGATLSRGPAFPGMGSEELRLASFYDWPLTAEVPPELLAAAGFFHTGHQDKVRCFFCYGGLQSWKRGDDPWTEHAKWFPGCQFLLRSKGQEYINNIHLTHSL
notes: also called ML-IAP-BIR/XIAP-BIR3 chimera protein; His6-tagged MLXBIR3SG

Experiment [1] concerns the target B3. The experiment is described as follows: TR-FRET competition against biotinylated Smac peptide AVPIAQK-biotin on His6-tagged MLXBIR3SG. On the procedure: Time-Resolved Fluorescence Resonance Energy Transfer (TR-FRET) competition experiments (Kolb et al., (1996) J. Biomol. Screening 1 (4): 203-210) were performed on the Wallac Victor2 Multilabeled Counter Reader™ (Perkin Elmer Life and Analytical Sciences, Inc.). […] Alternatively, this cocktail can be made using optimized concentrations of europium-labeled anti-His₆ antibody (Perkin Elmer) instead of the anti-His₆ antibody-allophycocyanin conjugate, and streptavidin-allophycocyanin conjugate (Perkin Elmer) instead of europium-labeled streptavidin. The reagent cocktail was incubated at room temperature for 30 minutes. […] After a 90 minute incubation at room temperature, the fluorescence was read with filters for the excitation of europium (340 nm) and for the emission wavelengths of europium (615 nm) and allophycocyanin (665 nm). Data are calculated as a ratio of the emission signal of allophycocyanin at 665 nm to the emission signal of europium at 615 nm (these ratios are multiplied by a factor of 10,000 for ease of data manipulation). The resulting values were plotted as a function of antagonist concentration and fit to a 4-parameter equation using Kaleidagraph™ software (Synergy Software, Reading, Pa.). Indications of antagonist potency were determined from the IC₅₀ values.
A general note: Time-resolved FRET reads energy transfer from a long-lived donor to a nearby acceptor.

Experiment [2] concerns the target B3. Nature of the experiment: fluorescence polarization competition against Hid-FAM probe. The procedure:
(§1) Samples were read after a 10-minute incubation. Fluorescence polarization values were plotted as a function of the antagonist concentration, and the IC₅₀ values were obtained by fitting the data to a 4-parameter equation using Kaleidagraph™ software (Synergy software, Reading, Pa.). Inhibition constants (Kᵢ) for the antagonists were determined from the IC₅₀ values (Keating et al., (2000) Putting the pieces together: contribution of fluorescence polarization assays to small-molecule lead optimization. Proceedings of SPIE: In-Vitro Diagnostic Instrumentation.).

Experiment [3] concerns the target T1, ML-IAP-BIR (amino acids 63-179 of accession number BIR7_HUMAN), bacterially expressed from pET15b (human, UniProt Q96CA5 63-179).
T1 construct: range 63-179; Purified protein used in the fluorescence polarization assays; also called MLBIR; wild-type ML-IAP-BIR; not shown: N-terminal His6-tag from the pET15b vector
T1 sequence (looked up): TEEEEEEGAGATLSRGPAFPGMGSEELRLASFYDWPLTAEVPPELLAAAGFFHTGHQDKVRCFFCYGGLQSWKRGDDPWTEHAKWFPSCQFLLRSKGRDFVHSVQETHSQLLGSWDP
The experiment is described as above. On the procedure: as §1

For experiment [4], the target named is T2, MLBIR-Q (C-terminally truncated version of ML-IAP-BIR with the same number of amino acids as MLXBIR3 and … (human, UniProt Q96CA5 63-172)).
T2 construct: range 63-172; also called C-terminal truncated wild type; not shown: N-terminal His6-tag from the pET15b vector
T2 sequence (looked up): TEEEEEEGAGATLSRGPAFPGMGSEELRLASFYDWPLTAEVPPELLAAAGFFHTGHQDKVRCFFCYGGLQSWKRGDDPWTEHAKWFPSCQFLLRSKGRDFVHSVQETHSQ
Described as above. On the procedure: as §1

The target of experiment [5] is T3, XIAP-BIR3 (third BIR of XIAP, residues 252-348) (human, UniProt P98170 252-348).
T3 construct: range 252-348; No tags are stated; also called XIAP-BIR3 protein
Described as above. The procedure:
as §1

For experiment [6], the target named is ΔCARD human caspase 9 (lacking the first 138 residues) with Ala substitutions at residues 304 to 306 (human) (UniProt P55211). The experiment is described as follows: caspase-9 enzyme inhibition.
For experiment [7] the target is unchanged. Nature of the experiment: caspase-9 enzyme inhibition (Ac-LEHD-AFC hydrolysis), Ki(app); too low to measure accurately.
Experiment [8] concerns the target T4, 5-carboxyflourescein-conjugated AVPFAK(5-FAM)K (Hid-FAM) (5-carboxyfluorescein (5-FAM) on Lys 6).
T4 construct: also called HID-FAM probe; Hid-based 5-carboxyfluorescein-labeled peptide
Nature of the experiment: fluorescence polarization, BIR protein titrated onto 5 nM Hid-FAM. On the procedure:
Polarization experiments were performed on an Analyst™ HT 96-384 (Molecular Devices Corp.). […] The reactions were read after an incubation time of 10 minutes at room temperature with standard cut-off filters for the fluorescein fluorophore (λₑₓ=485 nm; λₑₘ=530 nm) in 96-well black HE96 plates (Molecular Devices Corp.). Fluorescence polarization values were plotted as a function of the protein concentration, and the EC₅₀ values were obtained by fitting the data to a 4-parameter equation using Kaleidagraph™ software (Synergy software, Reading, Pa.). The apparent Kd values were determined from the EC₅₀ values.
A general note: In fluorescence polarisation assays a small probe gives low polarisation when free and higher when bound to something large.

Bounds are passed on as bounds.

Sequence of ΔCARD human caspase 9 (lacking the first 138 residues) with Ala substitutions at residues 304 to 306 (human) (P55211 139-416, stated change not applied): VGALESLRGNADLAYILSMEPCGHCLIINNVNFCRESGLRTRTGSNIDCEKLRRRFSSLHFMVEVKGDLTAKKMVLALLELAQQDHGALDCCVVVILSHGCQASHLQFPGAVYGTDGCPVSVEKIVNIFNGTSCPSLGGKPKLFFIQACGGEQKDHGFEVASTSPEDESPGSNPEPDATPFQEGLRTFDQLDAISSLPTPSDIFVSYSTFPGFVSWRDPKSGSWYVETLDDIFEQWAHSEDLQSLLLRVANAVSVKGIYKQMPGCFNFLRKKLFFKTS
T3 sequence (P98170 252-348 limits assumed): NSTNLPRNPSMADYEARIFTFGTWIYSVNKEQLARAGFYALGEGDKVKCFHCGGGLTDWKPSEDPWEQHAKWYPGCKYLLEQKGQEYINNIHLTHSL

Turning to AVPW (also called AVPW (Hid)) [AVPW peptide], the IC50 in experiment [1] is 150 nM.

B1: wild-type mature Smac protein (amino acids 56-239 of Smac/DIABLO, C-terminal His6 fusion) (other, human, UniProt Q9NR28 56-239, looked up)
chain: AVPIAQKSEPHSLSSEALMRRAVSLVTDSTSTFLSQTTYALIEAITEYTKAVYTLTSLYRQYTSLLGKMNSEEEDEVWQVIIGARAEMTSKHQEYLKLETTWMTAVGLSEMAAEAAYQTGADQASITARNHIQLVKLQVEEVHQLSRKAETKLAEAQIEELRQKTQEEGEERAESEQEAYLRED
notes: range 56-239; not shown: C-terminal His6 fusion from pet21b+
In the case of B1, the Ki in experiment [2] was 59 nM; in experiment [3], 26 nM; in experiment [4], 54 nM; in experiment [5], 320 nM.

B2: full-length ML-IAP plus a N-terminal His6-tag (protein, human, UniProt Q96CA5 1-298, looked up, not shown: small tags and cut ends)
chain: MGPKDSAKCLHRGPQPSHWAAGDGPTQERCGPRSLGSPVLGLDTCRAWDHVDGQILGQLRPLTEEEEEEGAGATLSRGPAFPGMGSEELRLASFYDWPLTAEVPPELLAAAGFFHTGHQDKVRCFFCYGGLQSWKRGDDPWTEHAKWFPSCQFLLRSKGRDFVHSVQETHSQLLGSWDPWEEPEDAAPVAPSVPASGYPELPTPRREVQSESAQEPGGVSPAEAQRAWWVLEPPGARDVEAQLRRLQEERTCKVCLDRAVSIVFVPCGHLVCAECAPGLQLCPICRAPVRSRVRTFLS
For the molecule B2, the fold lower potency for inhibition of caspase-9 activity relative to XIAP in experiment [6] came out at 300 fold.

B3 registered a Ki in experiment [7] of less than 1 nM. Besides, the Kd in experiment [8] stood at 30 nM.
